Experimental data taken from publication PMC6071512.

Target: His6-RumM (ruminococcin-A lanthionine synthetase RumM) (Ruminococcus gnavus E1) (UniProt P83674)

## His6-GFP-TEV-preRumA* (GFP fusion of the precursor peptide preRumA with Gly-1 replaced by Arg), co-expressed with RumM (from UniProt P83674 24-47)
  fraction of His6-GFP-TEV-preRumA* complexed with His6-RumM that TEV protease digested (the free construct was completely digested), SDS-PAGE: 50%
